The target of test [1] is polypeptides with a terminal leucine residue. Description: single-molecule dwell time analysis.
Test [2] has the same target.
Test [3] shares this target. The source holds these as a separate data set.
The target of test [4] is … peptide containing N-terminal phenylalanine. Description: single-molecule recognition of immobilized peptide, 500 nM of each binder.
Test [5] has the same target. The test can be described thus: table of pulse statistics of the single-molecule recognition experiment.
In test [6] the target is polypeptides with a terminal leucine residue. The test can be described thus: single-molecule dwell time analysis, distribution of mean pulse durations, panel Leu; filtered 0.00s≤dur≤20.00s and magnitude above baseline > 15.0.
Test [7] addresses peptide having an N-terminal tyrosine residue. Description: single-molecule dwell time analysis, distribution of mean pulse durations, panel Tyr; filtered 0.00s≤dur≤20.00s and magnitude above baseline > 15.0.
Test [8] concerns the target peptide having an N-terminal tryptophan residue. The test can be described thus: single-molecule dwell time analysis, distribution of mean pulse durations, panel Trp; filtered 0.00s≤dur≤20.00s and magnitude above baseline > 15.0.
Test [9] concerns the target peptide having an N-terminal phenylalanine residue. The test can be described thus: single-molecule dwell time analysis, distribution of mean pulse durations, panel Phe; filtered 0.00s≤dur≤20.00s and magnitude above baseline > 15.0.

Several values for one entry are separate records, joined by “and”; a condition that tells them apart may be missing. Identical values can stand only once. Like-named read-outs stand apart in the source and are kept apart here.

B1: ClpS from Thermosynochoccus elongatus (teClpS), labeled (protein)
chain: MPQERQQVTRKHYPNYKVIVLNDDFNTFQHVAACLMKYIPNMTSDRAWELTNQVHYEGQAIVWVGPQEQAELYHEQLLRAGLTMAPLEPE
For B1, the mean pulse duration in [1] came to 0.71 s. Moreover, in test [2], the pulse duration M was 0.43 s and 0.5 s; the pulse duration µ is 0.68 s and 0.65 s. Besides, in test [3], the pulse duration M was 0.46 s and 0.63 s; the pulse duration Mo worked out at 0.5 s; the pulse duration µ was 0.74 s and 0.82 s.

B2: at ClpS1 (Agrobacterium tumifaciens ClpS1) labeled with Cy3, Q8UFN4 1-117 (protein)
chain: MIAEPICMQGEGDGEDGGTNRGTSVITRVKPKTKRPNLYRVLLLNDDYTPMEFVIHILERFFQKDREAATRIMLHVHQHGVGECGVFTYEVAETKVSQVMDFARQHQHPLQCVMEKK
In test [4], B2 came in with a mean pulse duration of 1.3 s and a pulse rate of 8.1 pulses/min. In test [5], the N pulses was determined as 98 and the median pulse width was determined as 0.63 s.

B3: A. tumefaciens ClpS1 (protein)
chain: B2 chain
B3: the mean pulse duration (value at the dashed line) was determined as 0.31 s in [6], 0.69 s in test [7], 0.34 s in test [8] and 0.59 s in test [9].

(Values after patent US20250283886A1.)
